This note sets out measurements from PMC11214836, “ILF3 safeguards telomeres from aberrant homologous recombination as a telomeric R-loop reader”.

In the series the target is T1, ILF3-GFP full-length (UniProt Q12906 1-894).
T1 sequence: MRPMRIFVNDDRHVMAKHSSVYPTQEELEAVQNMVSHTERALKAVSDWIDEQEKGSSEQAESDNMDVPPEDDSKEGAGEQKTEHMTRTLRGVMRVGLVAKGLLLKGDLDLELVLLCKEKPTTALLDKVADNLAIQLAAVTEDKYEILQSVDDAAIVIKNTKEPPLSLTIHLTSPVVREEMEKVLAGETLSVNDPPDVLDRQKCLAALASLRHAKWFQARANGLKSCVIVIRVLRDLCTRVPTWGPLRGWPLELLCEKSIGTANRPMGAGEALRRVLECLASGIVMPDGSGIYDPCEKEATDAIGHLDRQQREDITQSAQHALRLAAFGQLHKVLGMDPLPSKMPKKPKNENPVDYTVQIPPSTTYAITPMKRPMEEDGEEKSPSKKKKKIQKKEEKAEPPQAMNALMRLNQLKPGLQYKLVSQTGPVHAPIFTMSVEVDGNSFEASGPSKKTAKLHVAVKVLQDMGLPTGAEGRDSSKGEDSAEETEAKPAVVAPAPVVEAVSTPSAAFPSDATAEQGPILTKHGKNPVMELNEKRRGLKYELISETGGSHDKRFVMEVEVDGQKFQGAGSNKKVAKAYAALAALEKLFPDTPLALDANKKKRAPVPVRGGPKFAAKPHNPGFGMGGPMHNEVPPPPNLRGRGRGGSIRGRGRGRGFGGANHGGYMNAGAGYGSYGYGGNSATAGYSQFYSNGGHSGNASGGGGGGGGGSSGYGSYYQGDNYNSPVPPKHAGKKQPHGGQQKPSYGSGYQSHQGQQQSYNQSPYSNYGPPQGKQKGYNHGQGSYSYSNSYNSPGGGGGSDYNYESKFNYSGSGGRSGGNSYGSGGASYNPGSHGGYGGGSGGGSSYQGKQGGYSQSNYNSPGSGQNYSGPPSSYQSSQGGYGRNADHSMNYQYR
The series can be described thus: MST; MST: 50 nM His-ILF3-GFP, oligo 0.4 nM-5 uM, 25 mM Tris-HCl pH 7.5, 100 mM NaCl, room temperature. Conditions: protein: recombinant, tags: His, blunt.

B1: mutTERRA RNA:DNA hybrid (UUAGCC) (DNA:RNA)
RNA: AGGGUUAGCCUUAGCCUUAGCC
DNA: GGCTAAGGCTAAGGCTAACCCT
Consider B1, for which the binding result is “no binding”.
